Assay results reported in patent US20170306033A1 (Amgen, published 2017).
Where a chain is given by its changes, count along the chain named.

T1: human PAC1 receptor (human, UniProt P41586 21-468)
T1 sequence: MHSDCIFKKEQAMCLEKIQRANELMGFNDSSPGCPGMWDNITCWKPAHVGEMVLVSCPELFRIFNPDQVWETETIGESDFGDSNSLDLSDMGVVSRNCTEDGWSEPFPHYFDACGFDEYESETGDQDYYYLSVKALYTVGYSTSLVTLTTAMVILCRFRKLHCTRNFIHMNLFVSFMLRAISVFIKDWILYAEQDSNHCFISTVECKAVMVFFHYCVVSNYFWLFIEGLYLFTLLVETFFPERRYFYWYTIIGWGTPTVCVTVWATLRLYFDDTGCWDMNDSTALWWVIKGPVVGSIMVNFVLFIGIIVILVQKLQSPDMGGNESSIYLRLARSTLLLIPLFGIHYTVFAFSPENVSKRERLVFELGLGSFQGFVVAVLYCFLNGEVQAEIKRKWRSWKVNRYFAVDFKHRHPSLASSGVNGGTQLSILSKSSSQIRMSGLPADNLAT

B1: iPS:328034 (bispecific antibody, human IgG1, kappa, N297G)
light 1: not shown
heavy 1: not shown
light 2: EIVLTQSPGTLSLSPGERATLSCRASQSVSSGYLTWYQQKPGQAPRLLIYGASSRATGIPDRFSGSGSGTDFTLTISRLEPEDFAVYYCQQYGNSLSRFGKGTKLEIKRTVAAPSVFIFPPSDEQLKSGTASVVCLLNNFYPREAKVQWKVDNALQSGNSQESVTEQDSKDSTYSLKSTLTLSKADYEKHKVYACEVTHQGLSSPVTKSFNRGEC
heavy 2: not shown
B2: iPS:328035 (bispecific antibody, human IgG1, kappa, N297G)
light 1: DIQMTQSPSSLSASVGDRITITCRASQSISRYLNWYQQKPGKAPKLLIYAASSLQSGIPSRFSGSGSGTDFTLTINSLQPEDFATYFCQQSYSPPFTFGQGTKVDIKRTVAAPSVFIFPPSDEQLKSGTASVVCLLNNFYPREAKVQWKVDNALQSGNSQESVTEQDSKDSTYSLESTLTLSKADYEKHKVYACEVTHQGLSSPVTKSFNRGEC
heavy 1: not shown
light 2: B1 light 2 with K101Q
heavy 2: not shown
B3: iPS:328036 (bispecific antibody, human IgG1, kappa, N297G)
light 1: not shown
heavy 1: not shown
light 2: B1 light 2 with K101Q
heavy 2: not shown
B4: iPS:326669 (bispecific antibody, human IgG2, kappa)
light 1: EIVLTQSPATLSLSPGERATLSCRASQSVGRSLHWYQQKPGQAPRLLIKYASQSLSGIPARFSGSGSGTDFTLTISSLEPEDFAVYYCHQSSRLPFTFGPGTKVDIKRTVAAPSVFIFPPSDEQLKSGTASVVCLLNNFYPREAKVQWKVDNALQSGNSQESVTEQDSKDSTYSLESTLTLSKADYEKHKVYACEVTHQGLSSPVTKSFNRGEC
heavy 1: QVQLVESGGGVVQPGRSLRLSCAASGFTFSRFAMHWVRQAPGKGLEWVAVISYDGGNKYYAESVKGRFTISRDNSKNTLYLQMNSLRAEDTALFYCARGYDVLTGYPDYWGQGTLVTVSSASTKGPSVFPLAPCSRSTSESTAALGCLVKDYFPEPVTVSWNSGALTSGVHTFPAVLQSSGLYSLKSVVTVPSSNFGTQTYTCNVDHKPSNTKVDKTVERKCCVECPPCPAPPVAGPSVFLFPPKPKDTLMISRTPEVTCVVVDVSHEDPEVQFNWYVDGVEVHNAKTKPREEQFNSTFRVVSVLTVVHQDWLNGKEYKCKVSNKGLPAPIEKTISKTKGQPREPQVYTLPPSREEMTKNQVSLTCLVDGFYPSDIAVEWESNGQPENNYDTTPPMLDSDGSFFLYSDLTVDKSRWQQGNVFSCSVMHEALHNHYTQKSLSLSPGK
light 2: B1 light 2 with K101Q
heavy 2: QVQLVESGGGVVQPGRSLRLSCAASGFTFSSYGMHWVRQAPGKGLEWVAVIWYDGSNKYYADSVKGRFIISRDKSKNTLYLQMNSLRAEDTAVYYCARAGGIAAAGLYYYYGMDVWGQGTTVTVSSASTKGPSVFPLAPCSRSTSESTAALGCLVKDYFPEPVTVSWNSGALTSGVHTFPAVLQSSGLYSLESVVTVPSSNFGTQTYTCNVDHKPSNTKVDKTVERKCCVECPPCPAPPVAGPSVFLFPPKPKDTLMISRTPEVTCVVVDVSHEDPEVQFNWYVDGVEVHNAKTKPREEQFNSTFRVVSVLTVVHQDWLNGKEYKCKVSNKGLPAPIEKTISKTKGQPREPQVYTLPPSRKKMTKNQVSLTCLVKGFYPSDIAVEWESNGQPENNYKTTPPMLKSDGSFFLYSKLTVDKSRWQQGNVFSCSVMHEALHNHYTQKSLSLSPGK
B5: iPS:327890 (bispecific antibody, human IgG1, kappa, lambda, N297G)
light 1: not shown
heavy 1: not shown
light 2: QSVLTQPPSVSAAPGQKVTISCSGSSSNIGNNYVSWYQQLPGTAPKLLIYDNNKRPSGIPDRFSGSKSGTSATLAITGLQTGDEADYYCGTWDSRLSAVVFGKGTKLTVLGQPKANPTVTLFPPSSEELQANKATLVCLISDFYPGAVTVAWKADGSPVKAGVETTKPSKQSNNKYAAKSYLSLTPEQWKSHRSYSCQVTHEGSTVEKTVAPTECS
heavy 2: QVQLVESGGGVVQPGRSLRLSCAASGFTFSSFGMHWVRQAPGKELEWVAVISFDGSIKYSVDSVKGRFTISRDNSKNTLFLQMNSLRAEDTAVYYCARDRLNYYDSSGYYHYKYYGMAVWGQGTTVTVSSASTKGPSVFPLAPSSKSTSGGTAALGCLVKDYFPEPVTVSWNSGALTSGVHTFPAVLQSSGLYSLESVVTVPSSSLGTQTYICNVNHKPSNTKVDKKVEPKSCDKTHTCPPCPAPELLGGPSVFLFPPKPKDTLMISRTPEVTCVVVDVSHEDPEVKFNWYVDGVEVHNAKTKPCEEQYGSTYRCVSVLTVLHQDWLNGKEYKCKVSNKALPAPIEKTISKAKGQPREPQVYTLPPSRKEMTKNQVSLTCLVKGFYPSDIAVEWESNGQPENNYKTTPPVLKSDGSFFLYSKLTVDKSRWQQGNVFSCSVMHEALHNHYTQKSLSLSPGK
B6: iPS:328047 (bispecific antibody, human IgG1, kappa, lambda, N297G)
light 1: B2 light 1
heavy 1: not shown
light 2: B5 light 2 with A72T, A75G, K103G
heavy 2: B5 heavy 2 with E44G
B7: iPS:328042 (bispecific antibody, human IgG1, kappa, lambda, N297G)
light 1: B2 light 1
heavy 1: not shown
light 2: not shown
heavy 2: not shown
B8: iPS:328045 (bispecific antibody, human IgG1, kappa, lambda, N297G)
light 1: B2 light 1
heavy 1: not shown
light 2: not shown
heavy 2: not shown
B9: iPS:328037 (bispecific antibody, human IgG1, kappa, lambda, N297G)
light 1: B2 light 1
heavy 1: not shown
light 2: not shown
heavy 2: not shown
B10: iPS:328040 (bispecific antibody, human IgG1, kappa, lambda, N297G)
light 1: B2 light 1
heavy 1: not shown
light 2: not shown
heavy 2: not shown
B11: iPS:328044 (bispecific antibody, human IgG1, kappa, lambda, N297G)
light 1: not shown
heavy 1: not shown
light 2: not shown
heavy 2: EVQLVESGGGLVKPGGSLRLSCAASGFTFSNAWMSWVRQAPGKELEWVGRIKSKTDGGTTDYTAPVKGRFTISRDDSKNTLYLQMNSLKAEDTAVYYCTTDRTGYSISWSSYYYYYGMDVWGQGTTVTVSSASTKGPSVFPLAPSSKSTSGGTAALGCLVKDYFPEPVTVSWNSGALTSGVHTFPAVLQSSGLYSLESVVTVPSSSLGTQTYICNVNHKPSNTKVDKKVEPKSCDKTHTCPPCPAPELLGGPSVFLFPPKPKDTLMISRTPEVTCVVVDVSHEDPEVKFNWYVDGVEVHNAKTKPCEEQYGSTYRCVSVLTVLHQDWLNGKEYKCKVSNKALPAPIEKTISKAKGQPREPQVYTLPPSRKEMTKNQVSLTCLVKGFYPSDIAVEWESNGQPENNYKTTPPVLKSDGSFFLYSKLTVDKSRWQQGNVFSCSVMHEALHNHYTQKSLSLSPGK
B12: iPS:328039 (bispecific antibody, human IgG1, kappa, lambda, N297G)
light 1: not shown
heavy 1: not shown
light 2: not shown
heavy 2: B11 heavy 2 with S30G, T63A, A90T, Y97F
B13: iPS:326648 (bispecific antibody, human IgG2, kappa, lambda)
light 1: B4 light 1
heavy 1: B4 heavy 1
light 2: not shown
heavy 2: not shown

Biological target: human CGRP receptor (human, UniProt Q16602 23-461; O60894 27-148)
Test: cell-based or functional assay

Sequence of human CGRP receptor (Q16602 23-461 limits assumed, chain 1 of 2): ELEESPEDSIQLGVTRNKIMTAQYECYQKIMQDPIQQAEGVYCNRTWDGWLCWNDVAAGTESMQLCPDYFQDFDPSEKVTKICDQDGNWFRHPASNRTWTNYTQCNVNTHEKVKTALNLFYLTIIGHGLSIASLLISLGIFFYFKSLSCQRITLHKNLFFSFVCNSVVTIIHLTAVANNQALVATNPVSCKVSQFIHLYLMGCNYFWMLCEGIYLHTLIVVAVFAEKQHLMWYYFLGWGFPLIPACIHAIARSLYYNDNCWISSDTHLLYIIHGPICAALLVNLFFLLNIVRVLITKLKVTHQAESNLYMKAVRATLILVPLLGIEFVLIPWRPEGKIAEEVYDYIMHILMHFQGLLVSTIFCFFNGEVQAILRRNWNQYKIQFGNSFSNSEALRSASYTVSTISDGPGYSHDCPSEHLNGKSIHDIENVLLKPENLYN
Sequence of human CGRP receptor (O60894 27-148 limits assumed, chain 2 of 2): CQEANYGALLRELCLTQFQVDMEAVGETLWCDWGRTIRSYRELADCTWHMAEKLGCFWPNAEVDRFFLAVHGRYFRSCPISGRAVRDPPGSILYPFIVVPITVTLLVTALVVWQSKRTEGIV

% inhibition of human CGRPR [%] | Binder
86 | B1
73 | B2
79 | B3
74 | B4
94 | B5
78 | B6
85 | B7
67 | B8
71 | B9
74 | B10
77 | B11
74 | B12
73 | B13

Biological target: T1, human PAC1 receptor
Test: cell-based or functional assay

% inhibition of human PAC1 [%] | Binder
9 | B1
10 | B2
21 | B3
85 | B4
15 | B5
33 | B6
20 | B7
29 | B8
25 | B9
70 | B10
5 | B11
9 | B12
92 | B13
